Source: patent US20250361281A1, “AMYLIN RECEPTOR (hAMY3R) AGONISTS WITH IMPROVED CHEMICAL STABILITY” (GUBRA A/S, priority 2022, published 2025)
Starred links: 1 amine or outer side, 2 acyl side, 3 side chain; linkers in the order of their positions; H or OH if unused. Positions of bridges follow the written chain, without caps; N, C: chain ends. Non-standard residues stand in square brackets, D forms with d. No end group written: not given here. *: point of attachment. C20 diacid = O=C(O)CCCCCCCCCCCCCCCCCCC(=O)*; γGlu = O=C(O)[C@H](CCC(=O)[*:2])N[*:1]; Hyp = O=C(O)[C@@H]1C[C@@H](O)CN1

Columns and labels:
[1] = pH 7, background statement; cited from earlier work
[2] = Physical stability of peptide analogues (Thioflavin T fibrillation); assay type: physicochemical; details: ThT fluorescence, 40° C., shaking, four days; pH 4 or pH 7 buffer
Description: General Protocols for Determination of Physical Stability of Peptide Analogues
Peptides were dissolved in buffers (50 mM sodium acetate at pH 4 or 50 mM sodium phosphate at pH 7) and incubated for one hour. The samples were then divided into two replicates of 80 μl in a black 384 well plate (μ-clear, Greiner Bio-One) and mixed with Thioflavin T (ThT) to a final concentration of 4 μM. The plate was sealed and placed in a plate reader (CLARIOstar, BMG) where the temperature was set at 40° C. during the course of the experiment. The samples were further stressed by shaking the plate at 700 rpm (linear) for five minutes before every measurement. The fluorescence was measured every 10 min for four days by exciting the ThT at 450 nm and measuring the emission at 480 nm. For each peptide, the ThT signal over time was smoothened using Local Polynomial Regression fitting (LOESS) as implemented in the statistical programming environment R. For the smoothened data, the maximum ThT signal was normalized in percent between the maximum ThT signal for hAMY and the buffer background.

[3] = molecular target: T1, human amylin receptor 3 (hAMY3R) (human, UniProt P30988 25-474; O60896 24-148); experiment: cell-based or functional assay
T1 sequence (looked up) 1: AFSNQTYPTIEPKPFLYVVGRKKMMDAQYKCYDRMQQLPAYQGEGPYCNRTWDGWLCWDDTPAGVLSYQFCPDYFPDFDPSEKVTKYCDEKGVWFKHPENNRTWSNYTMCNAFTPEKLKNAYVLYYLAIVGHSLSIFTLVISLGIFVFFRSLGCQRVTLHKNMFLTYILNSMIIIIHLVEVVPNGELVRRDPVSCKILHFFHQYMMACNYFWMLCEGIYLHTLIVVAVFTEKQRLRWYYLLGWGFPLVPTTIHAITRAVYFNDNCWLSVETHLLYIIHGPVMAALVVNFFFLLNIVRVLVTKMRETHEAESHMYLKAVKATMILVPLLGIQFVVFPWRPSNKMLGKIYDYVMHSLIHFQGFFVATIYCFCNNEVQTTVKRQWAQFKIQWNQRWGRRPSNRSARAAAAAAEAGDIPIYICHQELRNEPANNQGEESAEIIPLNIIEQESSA
T1 sequence (looked up) 2: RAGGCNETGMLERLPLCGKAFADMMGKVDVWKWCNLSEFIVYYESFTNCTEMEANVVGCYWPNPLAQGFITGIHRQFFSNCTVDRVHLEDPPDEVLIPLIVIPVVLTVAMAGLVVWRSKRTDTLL

[4] = molecular target: human adrenomedullin receptor 1 (hAM1R) (human, UniProt Q16602 23-461; O60895 43-175); experiment: cell-based or functional assay
human adrenomedullin receptor 1 (hAM1R), sequence (Q16602 23-461, chain 1 of 2): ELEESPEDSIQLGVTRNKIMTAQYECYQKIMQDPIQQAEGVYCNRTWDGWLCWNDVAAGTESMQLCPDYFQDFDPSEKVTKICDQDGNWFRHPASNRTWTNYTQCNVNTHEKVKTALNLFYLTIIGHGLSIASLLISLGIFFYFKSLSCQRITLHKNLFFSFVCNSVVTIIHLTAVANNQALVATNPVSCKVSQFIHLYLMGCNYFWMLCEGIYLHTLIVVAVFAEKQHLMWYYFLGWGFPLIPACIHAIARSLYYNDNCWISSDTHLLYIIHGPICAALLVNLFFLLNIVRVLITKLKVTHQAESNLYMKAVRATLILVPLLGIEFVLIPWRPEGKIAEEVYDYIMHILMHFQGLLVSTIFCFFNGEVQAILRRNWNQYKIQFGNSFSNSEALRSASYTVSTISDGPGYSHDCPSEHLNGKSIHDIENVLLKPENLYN
human adrenomedullin receptor 1 (hAM1R), sequence (O60895 43-175, chain 2 of 2): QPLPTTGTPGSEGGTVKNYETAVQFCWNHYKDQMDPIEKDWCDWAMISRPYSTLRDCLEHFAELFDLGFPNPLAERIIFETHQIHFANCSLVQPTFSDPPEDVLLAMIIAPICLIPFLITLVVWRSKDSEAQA

## CC[C@H](C)[C@H](NC(=O)[C@@H]1CCCN1C(=O)CNC(=O)[C@H](Cc1ccccc1)NC(=O)[C@H](CC(N)=O)NC(=O)[C@H](CC(N)=O)NC(=O)[C@H](CO)NC(=O)[C@H](CO)NC(=O)[C@H](Cc1c[nH]cn1)NC(=O)[C@@H](NC(=O)[C@H](CC(C)C)NC(=O)[C@H](Cc1ccccc1)NC(=O)[C@H](CC(N)=O)NC(=O)[C@H](C)NC(=O)[C@H](CC(C)C)NC(=O)[C@H](CCCNC(=N)N)NC(=O)[C@H](CCC(N)=O)NC(=O)[C@@H](NC(=O)[C@H](C)NC(=O)[C@@H]1CSSC[C@H](NC(=O)[C@@H](N)CCCCN)C(=O)N[C@@H](CC(N)=O)C(=O)N[C@@H]([C@@H](C)O)C(=O)N[C@@H](C)C(=O)N[C@@H]([C@@H](C)O)C(=O)N1)[C@@H](C)O)C(C)C)C(=O)N[C@@H](CC(C)C)C(=O)N1CCC[C@H]1C(=O)N1CCC[C@H]1C(=O)N[C@H](C(=O)N[C@@H](CC(N)=O)C(=O)N[C@H](C(=O)NCC(=O)N[C@@H](CO)C(=O)N[C@@H](CC(N)=O)C(=O)N[C@H](C(=O)N[C@@H](Cc1ccc(O)cc1)C(N)=O)[C@@H](C)O)C(C)C)[C@@H](C)O [Pramlintide]
[1]
  fibrillation at pH 7: fibrillates

## CC[C@H](C)[C@H](NC(=O)[C@H](C)NC(=O)CNC(=O)[C@H](Cc1ccccc1)NC(=O)[C@H](CC(N)=O)NC(=O)[C@H](CC(N)=O)NC(=O)[C@H](CO)NC(=O)[C@H](CO)NC(=O)[C@H](Cc1c[nH]cn1)NC(=O)[C@@H](NC(=O)[C@H](CC(C)C)NC(=O)[C@H](Cc1ccccc1)NC(=O)[C@H](CC(N)=O)NC(=O)[C@H](C)NC(=O)[C@H](CC(C)C)NC(=O)[C@H](CCCNC(=N)N)NC(=O)[C@H](CCC(N)=O)NC(=O)[C@@H](NC(=O)[C@H](C)NC(=O)[C@@H]1CSSC[C@H](NC(=O)[C@@H](N)CCCCN)C(=O)N[C@@H](CC(N)=O)C(=O)N[C@@H]([C@@H](C)O)C(=O)N[C@@H](C)C(=O)N[C@@H]([C@@H](C)O)C(=O)N1)[C@@H](C)O)C(C)C)C(=O)N[C@@H](CC(C)C)C(=O)N[C@@H](CO)C(=O)N[C@@H](CO)C(=O)N[C@H](C(=O)N[C@@H](CC(N)=O)C(=O)N[C@H](C(=O)NCC(=O)N[C@@H](CO)C(=O)N[C@@H](CC(N)=O)C(=O)N[C@H](C(=O)N[C@@H](Cc1ccc(O)cc1)C(N)=O)[C@@H](C)O)C(C)C)[C@@H](C)O [SEQ ID NO: 2]
[2]
  Fibril formation: Yes

B1: reference polypeptide KCNTATCTVQRLAEQIAQFTDKDKDNVAPPTNVGSNG[Hyp] (SEQ ID NO: 3) (peptide)
peptide: {C20 diacid-γGlu}-KCNTATCTVQRLAEQIAQFTDKDKDNVAPPTNVGSNG[Hyp]
modifications: disulfide 2-7; also: C-terminal generally amidated (-CONH2) per the definitions
[3]
  hAMY3R EC50 (nM), cAMP accumulation: 0.014 nM
[4]
  hAM1R EC50 (nM), cAMP accumulation: > 5000 nM

B2: polypeptide KCLTATCTVARLAEQIAQFTDKDKENVAPPTAVGSAG[Hyp] (SEQ ID NO: 4) (peptide)
peptide: {C20 diacid-γGlu}-KCLTATCTVARLAEQIAQFTDKDKENVAPPTAVGSAG[Hyp]
modifications: bridge 2-7 via ‑S‑CH2‑S‑; also: C-terminal generally amidated (-CONH2) per the definitions
[3]
  hAMY3R EC50 (nM), cAMP accumulation: 0.009 nM
[4]
  hAM1R EC50 (nM), cAMP accumulation: > 5000 nM

B3: human amylin hAMY1-37 (peptide)
peptide: KCNTATCATQRLANFLVHSSNNFGAILSSTNVGSNTY-NH2
modifications: disulfide 2-7
[3]
  hAMY3R EC50 (nM), cAMP accumulation: 0.01 nM
[4]
  hAM1R EC50 (nM), cAMP accumulation: > 5000 nM
